US20200283537A1 (published 2020)

Legend:
[1] = target: T1, Recombinant FOLR1 (rFOLR1), extracellular domain of folate receptor alpha-1 fused to IgG4-Fc; test: BLI
[2] = target: T1, Recombinant FOLR1 (rFOLR1), …; test: ELISA
[3] = target: T1, Recombinant FOLR1 (rFOLR1), …; test: BLI; remark: listed apart in the source
[4] = target: T1, Recombinant FOLR1 (rFOLR1), …; test: ELISA; remark: listed apart in the source
[5] = target: T2, Recombinant DR5 (rDR5), extracellular domain of DR5/TRAIL-R2 fused to IgG4-Fc; test: ELISA
[6] = target: T2, Recombinant DR5 (rDR5), extracellular …; test: BLI
[7] = target: T2, Recombinant DR5 (rDR5), extracellular …; test: ELISA; remark: listed apart in the source
[8] = target: T2, Recombinant DR5 (rDR5), extracellular …; test: BLI; remark: listed apart in the source
[9] = target: T2, Recombinant DR5 (rDR5), extracellular …; test: ELISA; remark: listed apart in the source
[10] = target: T2, Recombinant DR5 (rDR5), extracellular …; test: BLI; remark: listed apart in the source
[11] = target: T2, Recombinant DR5 (rDR5), extracellular …; test: BLI; remark: listed apart in the source
[12] = target: T2, Recombinant DR5 (rDR5), extracellular …; test: ELISA; remark: listed apart in the source

| Binder | Kd [1] | Kd [2] | Kd [3] | Kd [4] | Kd [9] | Kd [12] | other results |
| --- | --- | --- | --- | --- | --- | --- | --- |
| Farletuzumab (humanized anti-FOLR1 monoclonal antibody), recombinant human IgG1 (antibody, V domains shown) VH: EVQLVESGGGVVQPGRSLRLSCSASGFTFSGYGLSWVRQAPGKGLEWVAMISSGGSYTYYADSVKGRFAISRDNAKNTLFLQMDSLRPEDTGVYFCARHGDDPAWFAYWGQGTPVTVSS VL: DIQLTQSPSSLSASVGDRVTITCSVSSSISSNNLHWYQQKPGKAPKPWIYGTSNLASGVPSRFSGSGSGTDYTFTISSLQPEDIATYYCQQWSSYPYMYTFGQGTKVEIKR | 15 nM | 0.42 nM | 15 nM | 0.985 nM | – | – | – |
| Lexatumumab (anti-TRAIL-R2/DR5 antibody), recombinant human IgG1 (antibody, V domains shown) VH: EVQLVQSGGGVERPGGSLRLSCAASGFTFDDYGMSWVRQAPGKGLEWVSGINWNGGSTGYADSVKGRVTISRDNAKNSLYLQMNSLRAEDTAVYYCAKILGAGRGWYFDLWGKGTTVTVSS VL: SSELTQDPAVSVALGQTVRITCQGDSLRSYYASWYQQKPGQAPVLVIYGKNNRPSGIPDRFSGSSSGNTASLTITGAQAEDEADYYCNSRDSSGNHVVFGGGTKLTVLG | – | – | – | – | – | – | Kd [5]: 1.26 nM; Kd [6]: 3.3 nM; Kd [7]: 0.518 nM; Kd [8]: 3.3 nM |
| BaCa-2 (knob/hole single-chain-linked bispecific, monovalent anti-FOLR1 and anti-DR5) (bispecific antibody) chain 1: not shown chain 2: SSELTQDPAVSVALGQTVRITCQGDSLRSYYASWYQQKPGQAPVLVIYGKNNRPSGIPDRFSGSSSGNTASLTITGAQAEDEADYYCNSRDSSGNHVVFGGGTKLTVLRTVAAPSVFIFPPSDEQLKSGTASVVCLLNNFYPREAKVQWKVDNALQSGNSQESVTEQDSKDSTYSLSSTLTLSKADYEKHKVYACEVTHQGLSSPVTKSFNRGECGGGGSGGGGSGGGGSGGGGSGGGGSGGGGSGGGGSGGGGSGGGGSGGGGSEVQLVQSGGGVERPGGSLRLSCAASGFTFDDYGMSWVRQAPGKGLEWVSGINWNGGSTGYADSVKGRVTISRDNAKNSLYLQMNSLRAEDTAVYYCAKILGAGRGWYFDLWGKGTTVTVSSASTKGPSVFPLAPSSKSTSGGTAALGCLVKDYFPEPVTVSWNSGALTSGVHTFPAVLQSSGLYSLSSVVTVPSSSLGTQTYICNVNHKPSNTKVDKRVEPKSCDKTHTCPPCPAPELLGGPSVFLFPPKPKDTLMISRTPEVTCVVVDVSHEDPEVKFNWYVDGVEVHNAKTKPREEQYNSTYRVVSVLTVLHQDWLNGKEYKCKVSNKALPAPIEKTISKAKGQPREPQVYTLPPSREEMTKNQVSLTCLVKGFYPSDIAVEWESNGQPENNYKTTPPVLDSDGSFFLTSKLTVDKSRWQQGNVFSCSVMHEALHNRFTQKSLSLSPG | – | 0.0887 nM | – | – | 1.08 nM | – | – |
| BaCa-1 (Bispecific-Anchored Cytotoxicity-Activator-1; farletuzumab IgG1 with a lexatumumab scFv at the C-terminus of the heavy chain) (bispecific antibody) heavy: not shown light: DIQLTQSPSSLSASVGDRVTITCSVSSSISSNNLHWYQQKPGKAPKPWIYGTSNLASGVPSRFSGSGSGTDYTFTISSLQPEDIATYYCQQWSSYPYMYTFGQGTKVEIKRTVAAPSVFIFPPSDEQLKSGTASVVCLLNNFYPREAKVQWKVDNALQSGNSQESVTEQDSKDSTYSLSSTLTLSKADYEKHKVYACEVTHQGLSSPVTKSFNRGEC | 12 nM | 0.61 nM | 12 nM | 1.21 nM | 0.73 nM | 1.41 nM | Kd [10]: 3.1 nM; Kd [11]: 3.1 nM |
| BaCa antibody with LALA-Fc (L234A-L235A) mutations in the CH2 domain (bispecific antibody) heavy: EVQLVESGGGVVQPGRSLRLSCSASGFTFSGYGLSWVRQAPGKGLEWVAMISSGGSYTYYADSVKGRFAISRDNAKNTLFLQMDSLRPEDTGVYFCARHGDDPAWFAYWGQGTPVTVSSASTKGPSVFPLAPSSKSTSGGTAALGCLVKDYFPEPVTVSWNSGALTSGVHTFPAVLQSSGLYSLSSVVTVPSSSLGTQTYICNVNHKPSNTKVDKKVEPKSCDKTHTCPPCPAPEAAGGPSVFLFPPKPKDTLMISRTPEVTCVVVDVEHEDPEVKFNWYVDGVEVHNAKTKPREEQYNSTYRVVSVLTVLHQDWLNGKEYKCKVSNKALPAPIEKTISKAKGQPREPQVYTLPPSREEMTKNQVSLTCLVKGFYPSDIAVEWESNGQPENNYKTTPPVLDSDGSFFLYSKLTVDKSRWQQGNVFSCSVMHEALHNHYTQKSLSLSLGKGGGSGGGSGGGSSSELTQDPAVSVALGQTVRITCQGDSLRSYYASWYQQKPGQAPVLVIYGKNNRPSGIPDRFSGSSSGNTASLTITGAQAEDEADYYCNSRDSSGNHVVFGGGTKLTVLGGGGSGGGDSGGGGSGGGGSEVQLVQSGGGVERPGGSLRLSCAASGFTFDDYGMSWVRQAPGKGLEWVSGINWNGGSTGYADSVKGRVTISRDNAKNSLYLQMNSLRAEDTAVYYCAKILGAGRGWYFDLWGKGTTVTVSS light: DIQLTQSPSSLSASVGDRVTITCSVSSSISSNNLHWYQQKPGKAPKPWIYGTSNLASGVPSRFSGSGSGTDYTFTISSLQPEDIATYYCQQWSSYPYMYTFGQGTKVEIKRTVAAPSVFIFPPSDEQLKSGTASVVCLLNNFYPREAKVQWKVDNALQSGNSQESVTEQDSKDSTYSLSSTLTLSKADYEKHKVYACEVTHQGLSSPVTKSFNRGEC | – | – | – | 0.904 nM | – | 1.65 nM | – |
| BaCa-3 (dual-variable-domain bispecific, lexatumumab variable domains outer, farletuzumab inner) (bispecific antibody) heavy: not shown light: SSELTQDPAVSVALGQTVRITCQGDSLRSYYASWYQQKPGQAPVLVIYGKNNRPSGIPDRFSGSSSGNTASLTITGAQAEDEADYYCNSRDSSGNHVVFGGGTKLTVLGGSGGSGGSGGSDIQLTQSPSSLSASVGDRVTITCSVSSSISSNNLHWYQQKPGKAPKPWIYGTSNLASGVPSRFSGSGSGTDYTFTISSLQPEDIATYYCQQWSSYPYMYTFGQGTKVEIKRTVAAPSVFIFPPSDEQLKSGTASVVCLLNNFYPREAKVQWKVDNALQSGNSQESVTEQDSKDSTYSLSSTLTLSKADYEKHKVYACEVTHQGLSSPVTKSFNRGEC | – | 0.392 nM | – | – | 0.538 nM | – | – |
